# According to publication PMC10450195:
# How the values were obtained:
# [1] = test system: LANA peptide (Kaposi's Sarcoma Herpesvirus); assay: fluorescence polarization; conditions: FP: 20 mM HEPES pH 7.5, 150 mM NaCl, 0.5 mM EDTA, 1 mM DTT, 0.05% Triton X-100, 20 C, 50 nM peptide, EMSA: 15 mM HEPES pH 7.5, 150 mM NaCl
# [2] = biological target: Homo sapiens nucleosome core particle (human) (UniProt P68431); assay: fluorescence polarisation
Substance,Kd [1] [nM],Kd [2] [nM]
H. sapiens NCP,2380,
"Kaposi's Sarcoma Herpesvirus Latency Associated Nuclear Antigen (LANA) peptide, aa. 4-23",,2380
